How the values were obtained:
[1] = target: HLA-C exogenously expressed on cells (K562-HLA-C) (human) (UniProt P10321); test: flow cytometry; IgG1 mAb on cells expressing HLA-C
[2] = target: HLA-A exogenously expressed on cells (K562-HLA-A) (human) (UniProt P04439); test: flow cytometry; IgG1 mAb on cells expressing HLA-A
[3] = target: HLA-B exogenously expressed on cells (K562-HLA-B) (human) (UniProt P01889); test: flow cytometry; IgG1 mAb on cells expressing HLA-B
Sequence of HLA-B exogenously expressed on cells (K562-HLA-B) (human) (P01889 25-362): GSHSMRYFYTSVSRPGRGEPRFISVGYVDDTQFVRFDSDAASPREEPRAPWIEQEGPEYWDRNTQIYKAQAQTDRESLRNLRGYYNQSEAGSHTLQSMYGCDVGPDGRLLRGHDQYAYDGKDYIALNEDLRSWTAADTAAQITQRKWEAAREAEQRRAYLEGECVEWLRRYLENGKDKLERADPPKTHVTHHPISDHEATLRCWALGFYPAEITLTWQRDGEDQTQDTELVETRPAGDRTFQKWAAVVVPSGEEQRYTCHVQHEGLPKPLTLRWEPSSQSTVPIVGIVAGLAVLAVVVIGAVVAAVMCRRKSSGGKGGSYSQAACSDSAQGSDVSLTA

Sequence of HLA-C exogenously expressed on cells (K562-HLA-C) (human) (P10321 25-366): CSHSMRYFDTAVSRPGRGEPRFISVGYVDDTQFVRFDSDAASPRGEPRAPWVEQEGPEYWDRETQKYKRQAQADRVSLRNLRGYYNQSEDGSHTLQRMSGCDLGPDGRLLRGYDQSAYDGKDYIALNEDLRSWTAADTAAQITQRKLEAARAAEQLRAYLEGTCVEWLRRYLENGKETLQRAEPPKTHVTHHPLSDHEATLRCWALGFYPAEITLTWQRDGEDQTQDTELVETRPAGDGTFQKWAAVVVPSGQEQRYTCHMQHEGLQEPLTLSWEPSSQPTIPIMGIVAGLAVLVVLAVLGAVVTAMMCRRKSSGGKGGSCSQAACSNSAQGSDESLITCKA

B1: MHGB689 (antibody, human IgG1, kappa, V domains shown)
VH: QVQLQQSGPGLVKPSQTLSLTCVISGDSVSSNRAAWNWIRQSPSRGLEWLGRTYYRSKWYNDYAVSVKSRITINSDTSKNQISLQLNSVTPEDTAVYYCARVRPGIPFDYWGQGTTVTVSS
VL: DIQMTQSPDSLAVSLGERATINCESSQSVLFSSNKKNYLAWYQQKPGQPPKLLIYWASTRESGVPDRFSGSGSGTDFTLTINRLQAEDVAVYYCQQYNSTPWTFGQGTKVEIKR
Geomean fluorescence signal (maximum value for binding) [1]: 266
Geomean fluorescence signal (maximum value for binding) [2]: 2540
Geomean fluorescence signal (maximum value for binding) [3]: 5790

Source: US20220033505A1
